# According to patent US20170313764A1 (ACADEMISCH MEDISCH CENTRUM, published 2017):
# Where two headings read alike, the source gives them in different places.
# B1: AT12-007 (antibody, V domains shown)
# VH: QVQLEQSGAEVKKPGASVKVSCKVSGYTLTELSMHWVRQAPGKGLEWMGSFDPADGERLYAQKFQGRVIMSEDTSTDTAYMELSSLRSEDAAVYYCATAPRMTMFGVIMALDSWGQGTLVTVSS
# VL: DIQMTQSPSTLSASLGDRVTITCRASQNINKYLAWYQQKPGKAPKLLIYKASNLQSGVPSRFSGSGSGTDFILTISSLQPDDFATYYCQQYTTYSAWTFGQGTNVDIKR
# B2: AT15-009 (antibody, V domains shown)
# VH: QVLLVQSGAEVKKPGSSVKVSCKASGGTFSTYAISWLRQAPGQGPEWMGGIVPMFGITNYAQHFQGRITITADKSTSTAYMELSSLGSEDTAVYFCARDLRSGGTFFSRGFDLWGPGTKVTVSS
# VL: EIVLTQSPGTLSLSPGERATLSCRASQSVSSSFLTWYQQKPGQAPRLLIFDASTRATGVPDRFSGSGSGTDFTLTISRLEPEDFGVYYCQQFDSSPTFGGGTKVEIK
# B3: AT15-012 (antibody, V domains shown)
# VH: QVQLVQSGAEVKKPGSSVKVSCKASGGNFNIFPITWVRQAPGQGLEWMGEIIPMLGTPEYAQKFQGRVTITADKSTGTAFMELSSLRSEDTAVYYCARTETTLPGTLFFVYYFHFWGQGTPVTVSS
# VL: EIVMTQSPVTLSVSPGERAILSCRASQSVSSSLAWYQQKPGQAPRLLIYGASTRATGVPARFSGSGSGTEFTLTISSVQSEDYAIYFCQQYNDRPPWTFGQGTKVEIK
# notes: also called AT15-12
# B4: AT12-010 (antibody, V domains shown)
# VH: QLQLVQSGAEVKKPGSSVKVSCKASGGTFTSYAINWVRQVPGQGLEWMGEISPVFGTTHYAQKFQGRLKITADESADTAYMELSSLRSDDTAVYYCGRDRAPRLCSGGRCHSPPDHWGQGTLVTVSS
# VL: DIQMTQSPSSVSASVGDRVTITCRASQGFGNWLAWYQQKPGRAPKLLIFGASTLQNGVPSRFSGSASGTDFTLTITSLQPEDFATYYCLQTNTFPYTFGQGTKVEIKR
# Assays:
# [1] = target: T1, E1E2 of HCV isolate UKN4.11.1 (genotype 4) (Hepatitis C virus genotype 4); assay: cell-based or functional assay
# [2] = target: T2, E1E2 of HCV isolate AMS.3a.21071213 (genotype 3a) (Hepatitis C virus genotype 3a); assay: cell-based or functional assay
# [3] = target: T3, E1E2 of HCV isolate AMS.4d.20875969 (genotype 4d) (Hepatitis C virus genotype 4d); assay: cell-based or functional assay
# [4] = target: E1E2 of HCV isolate AMS.1b.20877857 (genotype 1b) (Hepatitis C virus genotype 1b); assay: cell-based or functional assay
# [5] = target: T4, E1E2 of HCV isolate H77 (genotype 1a), wild type (Hepatitis C virus genotype 1a, strain …, UniProt P27958 192-383; P27958 384-746); assay: cell-based or functional assay
# [6] = target: T5, soluble E2-his6-sortase tag from HCV isolate AMS.2b.20876551.kloon21 (genotype 2b) (Hepatitis C virus genotype 2b); assay: SPR (IBIS MX96), antibody spotted on chip, soluble E2-his as analyte
# T5 chain: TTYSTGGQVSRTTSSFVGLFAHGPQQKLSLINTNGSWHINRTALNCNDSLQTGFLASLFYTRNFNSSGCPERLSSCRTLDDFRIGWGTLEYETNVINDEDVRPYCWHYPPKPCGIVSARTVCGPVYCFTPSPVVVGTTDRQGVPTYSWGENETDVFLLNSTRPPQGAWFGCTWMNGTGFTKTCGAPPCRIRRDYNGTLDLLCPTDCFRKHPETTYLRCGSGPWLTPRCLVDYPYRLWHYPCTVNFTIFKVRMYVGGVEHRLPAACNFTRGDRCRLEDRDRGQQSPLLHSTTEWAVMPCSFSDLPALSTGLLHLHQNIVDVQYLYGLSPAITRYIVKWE
# [7] = target: T6, soluble E2-his6-sortase tag from HCV isolate H77 (genotype 1a) (Hepatitis C virus genotype 1a, strain …, UniProt P27958 384-717); assay: as above
# T6 construct: also called E2-his6-ST; E2 genotype 1a
# [8] = target: T1, E1E2 of HCV isolate UKN4.11.1 (genotype …); assay: cell-based or functional assay; remark: listed apart in the source
# [9] = target: T2, E1E2 of HCV isolate AMS.3a.21071213 …; assay: cell-based or functional assay; remark: listed apart in the source
# [10] = target: T3, E1E2 of HCV isolate AMS.4d.20875969 …; assay: cell-based or functional assay; remark: listed apart in the source
# [11] = target: T4, E1E2 of HCV isolate H77 (genotype 1a), …; assay: cell-based or functional assay; remark: listed apart in the source
# [12] = target: E1E2 of HCV isolate H77 with single mutation G436A (Hepatitis C virus genotype 1a, strain …, UniProt P27958 192-383; P27958 384-746); assay: ELISA, GNA-captured E1E2 lysate; EC50 wild type / EC50 mutant
# [13] = target: E1E2 of HCV isolate H77 with single mutation S424A (Hepatitis C virus genotype 1a, strain …, UniProt P27958 192-383; P27958 384-746); assay: as above
# [14] = target: E1E2 of HCV isolate H77 with single mutation T534A (Hepatitis C virus genotype 1a, strain …, UniProt P27958 192-383; P27958 384-746); assay: as above
# [15] = target: E1E2 of HCV isolate H77 with single mutation G418A (Hepatitis C virus genotype 1a, strain …, UniProt P27958 192-383; P27958 384-746); assay: as above
# [16] = target: E1E2 of HCV isolate H77 with single mutation L441A (Hepatitis C virus genotype 1a, strain …, UniProt P27958 192-383; P27958 384-746); assay: as above
# [17] = target: E1E2 of HCV isolate H77 with single mutation P612A (Hepatitis C virus genotype 1a, strain …, UniProt P27958 192-383; P27958 384-746); assay: as above
# [18] = target: E1E2 of HCV isolate H77 with single mutation D533A (Hepatitis C virus genotype 1a, strain …, UniProt P27958 192-383; P27958 384-746); assay: as above
# [19] = target: E1E2 of HCV isolate H77 with single mutation L413A (Hepatitis C virus genotype 1a, strain …, UniProt P27958 192-383; P27958 384-746); assay: as above
# [20] = target: E1E2 of HCV isolate H77 with single mutation D535A (Hepatitis C virus genotype 1a, strain …, UniProt P27958 192-383; P27958 384-746); assay: as above
# [21] = target: E1E2 of HCV isolate H77 with single mutation D698A (Hepatitis C virus genotype 1a, strain …, UniProt P27958 192-383; P27958 384-746); assay: as above
Binder,"IC50, HCVpp neutralization [1] [µg/mL]","IC90, HCVpp neutralization [1] [µg/mL]","IC50, HCVpp neutralization [2] [µg/mL]","IC90, HCVpp neutralization [2] [µg/mL]","IC50, HCVpp neutralization [3] [µg/mL]","IC90, HCVpp neutralization [3] [µg/mL]","IC50, HCVpp neutralization [4] [µg/mL]","IC90, HCVpp neutralization [4] [µg/mL]","IC50, HCVpp neutralization [5] [µg/mL]","IC90, HCVpp neutralization [5] [µg/mL]",Kd [6] [nM],koff [6] [s⁻¹],Kd [7] [nM],koff [7] [s⁻¹],"IC50, HCVpp neutralization [8] [µg/mL]","IC50, HCVpp neutralization [9] [µg/mL]","IC50, HCVpp neutralization [10] [µg/mL]","IC50, HCVpp neutralization [11] [µg/mL]","relative binding, mutant vs wild type [12] [%]","relative binding, mutant vs wild type [13] [%]",other results
B1,1.87,> 50,1.42,21.7,> 50,> 50,0.04,0.5,2.67,> 50,3.8,0.00019,44,0.00184,–,–,–,–,–,–,–
B2,–,–,–,–,–,–,–,–,–,–,–,–,–,–,1.33,0.71,2.26,0.14,93,106,"relative binding, mutant vs wild type [14]: 93%; relative binding, mutant vs wild type [15]: 112%; relative binding, mutant vs wild type [16]: 57%; relative binding, mutant vs wild type [17]: 94%; relative binding, mutant vs wild type [18]: 94%; relative binding, mutant vs wild type [19]: 112%; relative binding, mutant vs wild type [20]: 55%; relative binding, mutant vs wild type [21]: 116%"
B3,–,–,–,–,–,–,–,–,–,–,–,–,–,–,1.66,0.9,1.16,0.26,91,67,"relative binding, mutant vs wild type [14]: 95%; relative binding, mutant vs wild type [15]: 124%; relative binding, mutant vs wild type [16]: 83%; relative binding, mutant vs wild type [17]: 81%; relative binding, mutant vs wild type [18]: 82%; relative binding, mutant vs wild type [19]: 132%; relative binding, mutant vs wild type [20]: 52%; relative binding, mutant vs wild type [21]: 117%"
B4,> 50,> 50,1.41,> 50,> 50,> 50,0.47,8.51,1.06,> 50,22.8,0.00098,39.3,0.00142,–,–,–,–,–,–,–
